We go through one substance from article PMC10066184.

The assay addresses GltTk_P208R (UniProt Q5JID0). Briefly: cryo-EM structure; single-particle cryo-EM of GltTk_P208R in MSP2N2 nanodiscs (E. coli lipids), 20 mM Tris-HCl pH 8.0, 100 mM KCl, with 300 mM NaCl and 100 uM L-Asp added; C3 symmetry imposed.

As to “GltTk_P208R (from UniProt Q5JID0 1-430) (natural protein)”, the stoichiometry N (as a rule, the number of molecules, sites or subunits per partner or assembly) was 3.
